From patent publication US20100166772A1 (published 2010)

Key:
[1] = target: T1, ORF0657n [255-342] (CNBr fragment of ORF0657t, SDS PAGE band 10) (S. aureus, UniProt A5IS15 255-342); test: Western blot of CNBr fragments of ORF0657t, column Western negative, band 10
T1 construct: Limits as printed; also called 10 kDa band
T1 sequence: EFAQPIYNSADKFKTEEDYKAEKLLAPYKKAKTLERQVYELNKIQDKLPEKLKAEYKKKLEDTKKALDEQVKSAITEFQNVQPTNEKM

[2] = target: T2, ORF0657n [397-486] (CNBr fragment of ORF0657t, SDS PAGE band 10) (S. aureus, UniProt A5IS15 397-486); test: as above
T2 construct: Limits as printed; also called 10 kDa band
T2 sequence (A5IS15 397-486): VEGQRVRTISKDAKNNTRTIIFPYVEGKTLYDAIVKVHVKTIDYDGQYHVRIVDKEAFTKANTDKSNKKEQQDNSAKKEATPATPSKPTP

[3] = target: T3, ORF0657n [255-375] (CNBr fragment of ORF0657t, SDS PAGE band 9) (S. aureus, UniProt A5IS15 255-375); test: Western blot of CNBr fragments of ORF0657t, column Western negative, band 9
T3 construct: Limits as printed; also called 13 kDa band

[4] = target: T4, ORF0657n [375-486] (CNBr fragment of ORF0657t, SDS PAGE band 9) (S. aureus, UniProt A5IS15 375-486); test: as above
T4 construct: Limits as printed; also called 13 kDa band
T4 sequence (A5IS15 375-486): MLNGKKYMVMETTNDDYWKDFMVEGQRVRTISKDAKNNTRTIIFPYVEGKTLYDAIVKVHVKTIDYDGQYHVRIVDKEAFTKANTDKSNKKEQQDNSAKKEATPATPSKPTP

[5] = target: T5, ORF0657n [254-396] (CNBr fragment of ORF0657t, SDS PAGE band 8) (S. aureus, UniProt A5IS15 254-396); test: Western blot of CNBr fragments of ORF0657t, column Western negative, band 8
T5 construct: Limits as printed; also called 16 kDa band
T5 sequence (A5IS15 254-396): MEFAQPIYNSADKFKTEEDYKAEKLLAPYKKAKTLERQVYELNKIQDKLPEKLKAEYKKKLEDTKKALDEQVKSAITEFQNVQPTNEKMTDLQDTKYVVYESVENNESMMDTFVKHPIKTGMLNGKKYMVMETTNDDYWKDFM

[6] = target: T6, ORF0657n [343-486] (CNBr fragment of ORF0657t, SDS PAGE band 8) (S. aureus, UniProt A5IS15 343-486); test: as above
T6 construct: Limits as printed; also called 16 kDa band
T6 sequence (A5IS15 343-486): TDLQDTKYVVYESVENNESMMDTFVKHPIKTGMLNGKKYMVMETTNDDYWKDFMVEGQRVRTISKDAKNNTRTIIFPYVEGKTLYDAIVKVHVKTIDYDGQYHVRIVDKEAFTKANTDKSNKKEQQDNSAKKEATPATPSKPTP

[7] = target: T7, ORF0657n [254-384] (CNBr fragment of ORF0657t, SDS PAGE band 8) (S. aureus, UniProt A5IS15 254-384); test: as above
T7 construct: Limits as printed; also called 16 kDa band
T7 sequence (A5IS15 254-384): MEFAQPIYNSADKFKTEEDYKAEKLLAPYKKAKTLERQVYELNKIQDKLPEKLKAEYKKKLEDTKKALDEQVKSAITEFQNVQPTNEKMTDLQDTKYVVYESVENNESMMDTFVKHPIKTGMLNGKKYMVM

[8] = target: T8, ORF0657n [156-254] (CNBr fragment of ORF0657t, SDS PAGE bands 9 and 10) (S. aureus, UniProt A5IS15 156-254); test: Western blot of CNBr fragments of ORF0657t, column Western negative, bands 9 and 10
T8 construct: Limits as printed; also called 13 kDa band; 10 kDa band
T8 sequence: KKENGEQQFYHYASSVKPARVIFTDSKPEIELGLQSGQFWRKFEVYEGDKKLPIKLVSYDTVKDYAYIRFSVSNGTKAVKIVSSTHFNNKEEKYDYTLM

[9] = target: ORF0657n on the cell surface of S. aureus (S. aureus, UniProt A5IS15 41-613); test: cell-based or functional assay
Chain of ORF0657n on the cell surface of S. aureus (A5IS15 41-613 limits assumed): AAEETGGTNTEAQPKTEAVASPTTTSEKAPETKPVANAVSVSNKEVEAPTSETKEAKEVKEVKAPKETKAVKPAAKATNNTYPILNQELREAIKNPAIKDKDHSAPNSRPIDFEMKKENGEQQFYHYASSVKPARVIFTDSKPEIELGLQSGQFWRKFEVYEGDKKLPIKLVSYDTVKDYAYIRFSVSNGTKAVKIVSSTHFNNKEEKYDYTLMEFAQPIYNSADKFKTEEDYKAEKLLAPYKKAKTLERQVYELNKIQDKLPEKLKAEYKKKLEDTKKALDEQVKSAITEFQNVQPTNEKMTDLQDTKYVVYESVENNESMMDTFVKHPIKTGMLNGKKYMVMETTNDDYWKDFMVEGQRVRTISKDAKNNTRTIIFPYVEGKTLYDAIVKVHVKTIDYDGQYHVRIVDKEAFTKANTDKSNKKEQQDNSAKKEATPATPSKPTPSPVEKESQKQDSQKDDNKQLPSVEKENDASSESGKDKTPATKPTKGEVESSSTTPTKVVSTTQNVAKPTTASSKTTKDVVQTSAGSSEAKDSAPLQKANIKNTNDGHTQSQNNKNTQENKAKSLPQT

[10] = target: T9, ORF0657n [42-254] (CNBr fragment of ORF0657t, SDS PAGE band 7) (S. aureus, UniProt A5IS15 42-254); test: Western blot of CNBr fragments of ORF0657t, column Western negative, band 7
T9 construct: also called 26 kDa band
T9 sequence: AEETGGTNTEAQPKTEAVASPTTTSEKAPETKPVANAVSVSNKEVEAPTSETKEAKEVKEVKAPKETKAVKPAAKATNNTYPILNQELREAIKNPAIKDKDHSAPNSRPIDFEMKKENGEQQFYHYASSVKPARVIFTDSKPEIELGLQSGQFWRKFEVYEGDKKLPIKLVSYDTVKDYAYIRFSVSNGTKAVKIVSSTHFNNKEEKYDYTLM

[11] = target: T10, ORF0657n [255-486] (CNBr fragment of ORF0657t, SDS PAGE band 7) (S. aureus, UniProt A5IS15 255-486); test: as above
T10 construct: also called 26 kDa band

B1: mAb CS-D7 (antibody, human IgG1, kappa, V domains shown)
VH: QVQLQESGPGLVKPSETLSLTCTVSGGSIRSSSYYWGWFRQTPGKGLEWLGNVFFSGSAYYNPSLKNRVTISIDTSENQSSLKLTSVTAADTAVYYCARPQAYSHDSSGHSPFDLWGRGTLVTVSS
VL: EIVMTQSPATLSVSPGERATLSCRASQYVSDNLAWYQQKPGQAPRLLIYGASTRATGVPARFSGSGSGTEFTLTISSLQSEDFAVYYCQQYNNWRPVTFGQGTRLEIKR
notes: also called D7 IgG; full length IgG CS-D7
**Q.** Does B1 bind [1]?
**A.** Result: no binding

**Q.** Does B1 bind [2]?
**A.** Result: no binding

**Q.** Does B1 bind [3]?
**A.** Result: no binding

**Q.** Does B1 bind [4]?
**A.** Result: no binding

**Q.** Does B1 bind [5]?
**A.** Result: no binding

**Q.** Does B1 bind [6]?
**A.** Result: no binding

**Q.** Does B1 bind [7]?
**A.** Result: no binding

**Q.** Does B1 bind [8]?
**A.** Result: no binding

**Q.** And the “EC50 (read off the curve)” value [9]?
**A.** The value was ~0.02 ug mAb.

**Q.** Does B1 bind [10]?
**A.** Result: no binding

**Q.** Does B1 bind [11]?
**A.** Result: no binding
